System: MS2 coat protein
Assay: apparent KD of MS2 coat protein; higher = weaker reporter binding
Details: Eterna round: R107
Outline: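 Apparent KD was obtained for each design as the median of normalised binding-curve fits over its clusters. RNA switches transcribed on-chip from Illumina sequencing clusters were titrated with SNAP-549-labelled MS2 coat protein (twofold steps, 0.7 or 1.5 nM to 3 µM) in 100 mM Tris-HCl pH 7.5, 80 mM KCl, 4 mM MgCl2, without or with constant ligand.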

[1] = input ligand: theophylline 20 uM
[2] = input ligand: theophylline 2 mM
[3] = input ligand: tryptophan 2.4 mM

| Sequence | apparent KD of MS2 coat protein (input ligand: arginine 13.2 mM) | apparent KD of MS2 coat protein (input ligand: none) | apparent KD of MS2 coat protein [1] | apparent KD of MS2 coat protein [2] | apparent KD of MS2 coat protein [3] |
| --- | --- | --- | --- | --- | --- |
| ACGUCCAGGUUAAUCGUGGGCAUGGUCGAUACCAGUAUUUUAAUCUACCCUUGGCAGCGACAUGAGGAUCACCCAUGUGCGAUGA [XTheo A #16] | 13.8 nM | 16.4 nM | 17.9 nM | 40.1 nM | 16.9 nM |
| AAUUCCUCACAUGAGGAUCACCCAUGUGAAGGAGCGCCGAAUAAGGCAGGUAGGUCGCACAUGGAAACCGCUACGAAAGUAGUAA [XArg-A 2 NuV2] | 18.7 nM | 19.9 nM | 25.3 nM | 22.1 nM | 19.2 nM |
| GGACUAACCUGAAGGAGCGACGCGCAGAAACUGCAAAUUCCUCCACACGAGGAUCACCCGUGUCAGGUAGGUCGCAGGUUAGUCG [ArgBX 28] | 13.6 nM | 14.6 nM | 18.9 nM | 18.2 nM | 16.9 nM |
| AUAUGAUCAUGUGAUACCAGAAAUGGUAUUCCUCGCUGGAUUACAUGAGGAUCACCCAUGUUCCCUUGGCAGCAUAUGAUCAUAU [#01 Exclusion-TheophyllineB] | 21.3 nM | – | 36.3 nM | – | 20.9 nM |
| CUAGGAAACUAGUAAGGGUGGUAUAGAGAUACCAGUACAGAAAUGUACCCUUGGCAGCUCACUGCAACAUGAGGAUCACCCAUGU [Ex Theophylline A 11] | 29.9 nM | – | 41.6 nM | – | 26.1 nM |
| ACCGCAGGUCCUGAUACCAGAGACAUGAGGAUCACCCAUGUCCGAUCGUCCUGCCUCAGGCUCCCUUGGCAGCAGGGCUUGUCCU [Exclusion Theophylline B GF8] | 14.1 nM | – | 20.6 nM | – | 14.8 nM |
| UGUCCUCAUGCGGCCGCCACUGUCGGCCGCCACUAAACAUGAGGAUCACCCAUGUAGGACCGGGACAGGACCGGGCAUGGGUGCU [TryBS - #DoubleAptamer] | 132 nM | 102 nM | 232 nM | 244 nM | 319 nM |
| AAGGUGAUCCCAGAUACCAGCUUAACAUGAGGAUCACCCAUGUAUGGGACGAAAGUCCCGGGCCCUUGGCAGCUGGGUUGCCAAG [SSTheo B #16] | 43.6 nM | 224 nM | 427 nM | 64.9 nM | 170 nM |
| CUCGGGUUAUCAGAUACCAGACUAAAAUUUACAUGAGGAUCACCCAUGUAAUGGGUGAUAGUCCCUUGGCAGCUGUUAUGUUUAA [JR_ExcTheophyB_Sub001] | 65 nM | – | 85.4 nM | – | 70.8 nM |
| AUGAAGCUAAGAGAUACCAGUGACCACAGAUACAUGAGGAUCACCCAUGUCUCAAAUUGUCACCCUUGGCAGCUCACUAUCGAAG [theeternabot_sameState_MS2_Theo_B_29] | 11.2 nM | – | 11.9 nM | – | 10.2 nM |
| CUCCCGUGGUCGGCCGCCACUGGAGGCUUUGCGCGACAUGAGGAUCACCCAUGUGUGCCCGGCGUCAGGACCGGGAUCGCGUGAG [#1 Same State - Tryptophan B Attempt #13 (HarryS)] | 11.7 nM | 14.6 nM | 16 nM | 17.7 nM | 11.5 nM |
| CAUUUUAGAAAACUAAAAUGAGUGGGUGAACGAGGACCGGUACGGCCGCCACUCGGACAUGAGGAUCACCCAUGUCCAUGUGAAA [AstrosExyTryA#22] | 22.8 nM | 14.1 nM | 15 nM | 14.4 nM | 37.8 nM |
| GAUAUUUGAAAACAAAUAUCAGUGGGUGAACGAGGACCGGUACGGCCGCCACUCGGACAUGAGGAUCACCCAUGUCCAUGUGAAA [AstrosExyTryA#7] | 13.9 nM | – | 18.2 nM | 17.6 nM | – |
| ACAUGAGGAUCACCCAUGUAUUGAGCCGAAGGAGCGGCAGGUAUGCCAGGUAGGUCGCGGUUAGAGUAGAUUGAUGUUCUUUUGU [Exclusion - Arginine A / B] | 12.3 nM | 12.7 nM | 14.8 nM | 16.3 nM | 12.4 nM |
| UCUCGGUCUUUCUUUCUCCGAGAAUAUGAUACCAGUUAGUUUUAUGGCCCUUGGCAGCAUAGAACAUGAGGAUCACCCAUGUGUU [SSThA NP+V+V2 #9 +-Same Structure] | 48.1 nM | – | 114 nM | – | 96.5 nM |
| CCCAGUCAUAACAAAGGAAAUAUACUCGAAGGAGCGUCAUAGUAGGCAGGUAGGUCGCGAGACAUGAGGAUCACCCAUGUAGAGA [swwvmullin] | 21.5 nM | 47.5 nM | 72 nM | 75.1 nM | 57.8 nM |
| AGCAUGUUCAGAAGGAGCGUGCAAGGGUACAUUCGUAGGACAUGAGGAUCACCCAUGUAAGCACAGGUAGGUCGCUGGACAUGCU [Arg B SS t5] | 71.1 nM | 98.7 nM | 82.4 nM | 129 nM | 107 nM |
| ACGACAUGAGGAUCACCCAUGUAAGGUGAUACCAGACGAAGUAAUGUCCCUUGGCAGCACAAGCAUAGUUGCGAUUAUUGUACGA [JR_SSTheophyA_Sub006] | 124 nM | – | 574 nM | – | 442 nM |
| UAGUACAUGAGGAUCACCCAUGUCGGAGGUCGAGGACCGGUACGGCCGCCACUCGGUCAUGCCCUACGAUACGACAGGAAUCUGU [theeternabot_sameState_MS2_Trp_A_28] | 21.8 nM | – | 36.5 nM | 28.9 nM | – |
| CUGCCAUGCAGAGAUACCAGUGAGCUCAGAACAUGAGGAUCACCCAUGUACGCCGCCGAUCACCCUUGGCAGCUCUGCAUGGCAG [%*#)(] | 12.2 nM | 12.4 nM | 14.1 nM | 11.4 nM | 11.6 nM |
| ACGCCCAGGUAGGCUUAAUGGGAUAUGGAAGGAGCGCUGAUGCAAGCAGGUAGGUCGCCAACGGACAUGAGGAUCACCCAUGUAC [Same State - Arginine A (Freestyle 3)] | 15.3 nM | 20.9 nM | 22.3 nM | 23.8 nM | 19.5 nM |
| GAGACAUGAGGAUCACCCAUGUUAGAUGAUACCAGUUAGAGAAGGAGCCCUUGGCAGCGUAAAUCUAGAGCCUAUGACGACAUGU [ss-theoA-1] | 16.2 nM | – | 15.8 nM | – | 13.2 nM |
| AGCCGGAUUACGGCCGCCACUGUAGACGUGACGAAAGUCGCGUCAACAUGAGGAUCACCCAUGUACAGGACCGGGUGGUCCGGCA [Omei Trp B SS A v3] | 7.09 nM | 9.61 nM | 11.2 nM | 8.87 nM | 8.97 nM |
| GGGUGGUAGGCGGCCGCCACUGAUUUUUAUUUAUAGAUGACAUGAGGAUCACCCAUGUUGAUAUGCAGGACCGGGCCUGUUGUUG [aaaP] | 10.9 nM | – | 19.7 nM | 15.4 nM | – |
| AGCACUGUGACGGCCGCCACUACAUAUAGGGUGGUCAGGUUCAUAAUACAUGAGGAUCACCCAUGUAGGACCGGGUCUCAGUGCA [Omei Trp Exc B A v5] | 12.5 nM | – | 14.6 nM | 14.6 nM | – |
| AGAAUAUAGUCGGCCGCCACUCUACAAACAUGAGGAUCACCCAUGUUCACAUAGUGGAAACACAUGAGGACCGGGACAUAGGCAU [#17 Same State - Tryptophan B] | 14 nM | – | 21.4 nM | 18.3 nM | – |
| ACGUCCGGAUUACUCGUGGGCAUGGUCGAUACCAGUAUUUUAAUCUACCCUUGGCAGCGACAUGAGGAUCACCCAUGUGCGAUGA [XTheo A #20] | 21.5 nM | 20.5 nM | 41.6 nM | 41.3 nM | 21.8 nM |
| ACAUGAGGAUCACCCAUGUGCCGUCUUGAUACCAGACCCGAAGUAGUCCCUUGGCAGCAACUACGUGACGGUCGCGCAUGUGUAG [kaomullin] | 16.3 nM | – | 30.3 nM | – | 17.7 nM |
| AGGAAACAACAUGAGGAUCACCCAUGUGAUACCAGUCAAAUAAAAGACCCUUGGCAGCACACAUGACAUGAGGAUCACCCAUGUA [AstrosSSTheA#1] | 24.8 nM | – | 41.5 nM | – | 59.8 nM |
| GCCGGACUUUCGGCCGCCACUGAGAGAGUCGUGUGAACAUGAGGAUCACCCAUGUAAUAUAUAUACAGGACCGGGAGGGUUGGGC [4.R] | 10.5 nM | 13.7 nM | 15.1 nM | 14.4 nM | 12.4 nM |

Reference: the supplement of paper PMC9170038
